The numbers were not newly measured in PMC12207913, which cites them from elsewhere.

For this data set, the target named is E6AP (Homo sapiens) (UniProt Q05086). The data set is described as follows: SPR.
UniProt Q05086, sequence (Q05086 whole entry): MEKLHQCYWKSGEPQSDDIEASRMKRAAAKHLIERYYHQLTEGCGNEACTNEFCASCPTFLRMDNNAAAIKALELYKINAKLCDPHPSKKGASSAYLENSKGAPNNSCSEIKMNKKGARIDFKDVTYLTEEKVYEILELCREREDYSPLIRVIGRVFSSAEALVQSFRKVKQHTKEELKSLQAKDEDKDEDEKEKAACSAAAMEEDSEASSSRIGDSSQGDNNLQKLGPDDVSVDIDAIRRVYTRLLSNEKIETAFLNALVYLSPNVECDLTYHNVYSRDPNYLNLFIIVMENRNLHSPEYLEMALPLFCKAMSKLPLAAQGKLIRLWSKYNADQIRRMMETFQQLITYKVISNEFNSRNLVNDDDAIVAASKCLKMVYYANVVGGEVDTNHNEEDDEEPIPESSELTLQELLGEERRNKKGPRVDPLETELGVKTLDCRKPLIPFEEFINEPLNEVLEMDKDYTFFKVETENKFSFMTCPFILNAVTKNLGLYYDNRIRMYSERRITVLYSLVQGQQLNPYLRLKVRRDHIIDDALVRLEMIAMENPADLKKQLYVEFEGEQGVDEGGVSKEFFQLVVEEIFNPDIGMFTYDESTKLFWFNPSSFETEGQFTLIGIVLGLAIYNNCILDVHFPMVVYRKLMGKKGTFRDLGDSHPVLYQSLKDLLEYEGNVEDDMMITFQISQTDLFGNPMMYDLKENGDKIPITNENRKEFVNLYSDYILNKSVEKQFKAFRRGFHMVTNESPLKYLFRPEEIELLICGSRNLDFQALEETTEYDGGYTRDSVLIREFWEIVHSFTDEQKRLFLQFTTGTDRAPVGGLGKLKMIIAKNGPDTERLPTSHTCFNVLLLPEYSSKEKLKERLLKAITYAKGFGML

As for HPV16 E6 (from UniProt P03126), the Kd – broadly, the constant that tells how readily two partners part at equilibrium – is 0.144 nM.
